Test results: article PMC10807135 (ACS chemical biology, 2023)
Read-outs that look alike come from different tables or passages of the source. Each block holds one binder with its values, some of them ahead of it.

What was measured:
[1] = target: T1, PltF Q438R D263K A230R (Pseudomonas fluorescens, UniProt Q4KCY5 1-498, Q438R | D263K | A230R); experiment: NMR titration
T1 sequence: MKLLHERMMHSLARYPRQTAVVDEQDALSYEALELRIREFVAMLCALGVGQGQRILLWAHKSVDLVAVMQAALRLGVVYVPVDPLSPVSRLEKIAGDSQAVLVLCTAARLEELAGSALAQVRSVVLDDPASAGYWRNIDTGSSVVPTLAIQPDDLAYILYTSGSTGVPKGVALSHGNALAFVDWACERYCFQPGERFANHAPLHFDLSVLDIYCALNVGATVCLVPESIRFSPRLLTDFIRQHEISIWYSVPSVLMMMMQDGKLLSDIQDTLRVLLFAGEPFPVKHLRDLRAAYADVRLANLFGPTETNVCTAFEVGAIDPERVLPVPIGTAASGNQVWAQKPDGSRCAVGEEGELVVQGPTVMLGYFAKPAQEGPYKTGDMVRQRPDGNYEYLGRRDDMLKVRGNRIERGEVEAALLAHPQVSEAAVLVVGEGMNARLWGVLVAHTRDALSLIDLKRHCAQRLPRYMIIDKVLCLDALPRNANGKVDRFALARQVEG

[2] = target: holo-AcpP (E. coli acyl carrier protein AcpP with phosphopantetheine) (Escherichia coli) (UniProt P0A6A8)
[3] = target: holo-AcpP (E. coli acyl carrier protein AcpP with phosphopantetheine) (Escherichia coli) (UniProt P0A6A8); remark: listed apart in the source

binding result [1]: binds
B1: desulfo-AcpP (15N-labelled E. coli acyl carrier protein AcpP loaded with a desulfo-PPant mimic) (natural protein, Escherichia coli)
chain: STIEERVKKIIGEQLGVKQEEVTNNASFVEDLGADSLDTVELVMALEEEFDTEIPDEEAEKITTVQAAIDYINGHQA
modifications: desulfo-phosphopantetheine (desulfo-PPant mimic) loaded onto apo-AcpP; uniform 15N labelling

turnover rate of AcpP prolylation (time course, HPLC) [2]: 0.264 AcpP h^-1
B2: PltF Q438R (enzyme)
chain: MKLLHERMMHSLARYPRQTAVVDEQDALSYEALELRIREFVAMLCALGVGQGQRILLWAHKSVDLVAVMQAALRLGVVYVPVDPLSPVSRLEKIAGDSQAVLVLCTAARLEELAGSALAQVRSVVLDDPASAGYWRNIDTGSSVVPTLAIQPDDLAYILYTSGSTGVPKGVALSHGNALAFVDWACERYCFQPGERFANHAPLHFDLSVLDIYCALNVGATVCLVPESIAFSPRLLTDFIRQHEISIWYSVPSVLMMMMQDGDLLSDIQDTLRVLLFAGEPFPVKHLRDLRAAYADVRLANLFGPTETNVCTAFEVGAIDPERVLPVPIGTAASGNQVWAQKPDGSRCAVGEEGELVVQGPTVMLGYFAKPAQEGPYKTGDMVRQRPDGNYEYLGRRDDMLKVRGNRIERGEVEAALLAHPQVSEAAVLVVGEGMNARLWGVLVAHTRDALSLIDLKRHCAQRLPRYMIIDKVLCLDALPRNANGKVDRFALARQVEG

turnover rate of AcpP prolylation (time course, HPLC) [3]: 1.98 AcpP h^-1
B3: PltF Q438R K472R D263N (enzyme)
chain: MKLLHERMMHSLARYPRQTAVVDEQDALSYEALELRIREFVAMLCALGVGQGQRILLWAHKSVDLVAVMQAALRLGVVYVPVDPLSPVSRLEKIAGDSQAVLVLCTAARLEELAGSALAQVRSVVLDDPASAGYWRNIDTGSSVVPTLAIQPDDLAYILYTSGSTGVPKGVALSHGNALAFVDWACERYCFQPGERFANHAPLHFDLSVLDIYCALNVGATVCLVPESIAFSPRLLTDFIRQHEISIWYSVPSVLMMMMQDGNLLSDIQDTLRVLLFAGEPFPVKHLRDLRAAYADVRLANLFGPTETNVCTAFEVGAIDPERVLPVPIGTAASGNQVWAQKPDGSRCAVGEEGELVVQGPTVMLGYFAKPAQEGPYKTGDMVRQRPDGNYEYLGRRDDMLKVRGNRIERGEVEAALLAHPQVSEAAVLVVGEGMNARLWGVLVAHTRDALSLIDLKRHCAQRLPRYMIIDRVLCLDALPRNANGKVDRFALARQVEG
